Measured values: publication PMC4802042, “A conserved motif in JNK/p38-specific MAPK phosphatases as a determinant for JNK1 recognition and inactivation” (Nature Communications, 2016)

Biological target: double-phosphorylated JNK1 (phospho-JNK1) (human, double-phosphorylated (sites not stated for this protein))
Test: cell-based or functional assay

phosphatase activity for JNK1 dephosphorylation, relative to wild-type MKP7-CD (Fig. 4a): ~10 fold
B1: MKP7-CD (F285D) (domain or fragment, human, UniProt Q9BY84 156-301, looked up)
chain: NIGPTRILPNLYLGCQRDVLNKELMQQNGIGYVLNASNTCPKPDFIPESHFLRVPVNDSFCEKILPWLDKSVDFIEKAKASNGCVLVHCLAGISRSATIAIAYIMKRMDMSLDEAYRFVKEKRPTISPNDNFLGQLLDYEKKIKNQ
